Laboratory results taken from patent US8414892.

Key:
[1] = molecular target: HLA class I (HLA A, B, C) (human); experiment: indirect immunofluorescence
[2] = molecular target: HLA class I (HLA A, B, C) (human); experiment: indirect immunofluorescence, U2OS cells
[3] = molecular target: HLA class I (HLA A, B, C) (human); experiment: indirect immunofluorescence, U2OS cells recultured at 37 C after antibody binding
FCOPC21 = experiment: ELISA, MoAb coated
HOPC-1 = experiment: ELISA, MoAb coated
MOPC 104E = experiment: ELISA, MoAb coated
MOPC 21 = experiment: ELISA, MoAb coated
MOPC 315 = experiment: ELISA, MoAb coated
MoAb 3F8 = experiment: ELISA, MoAb coated
MoAb R24 = experiment: ELISA, MoAb coated
TIB114 = experiment: ELISA, MoAb coated
UJ 13A = experiment: ELISA, MoAb coated
monoclonal antibody 8H9 [4] = experiment: ELISA, MoAb coated; ++ = OD 1~2
Chain of monoclonal antibody 8H9 (VH, as listed by the source limits assumed, chain 1 of 2): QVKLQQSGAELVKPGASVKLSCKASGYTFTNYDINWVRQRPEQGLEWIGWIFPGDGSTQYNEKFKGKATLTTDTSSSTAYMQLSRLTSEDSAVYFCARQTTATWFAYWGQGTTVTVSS
Chain of monoclonal antibody 8H9 (VL, as listed by the source limits assumed, chain 2 of 2): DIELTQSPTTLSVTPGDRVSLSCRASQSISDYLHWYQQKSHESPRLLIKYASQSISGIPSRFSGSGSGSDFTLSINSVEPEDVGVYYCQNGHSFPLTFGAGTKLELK

monoclonal antibody 8H9 [5] = experiment: FACS inhibition, 5 ug/ml 8H9 on LAN-1 cells
monoclonal antibody 8H9 [6] = experiment: FACS inhibition, 5 ug/ml 8H9 on HTB-82 cells
[7] = molecular target: 8H9 scFv-human gamma1-CH2-CH3 chimeric antibody (human); experiment: FACS inhibition, 5 ug/ml 8H9-scFv-Fc on HTB82 cells

loss of binding after 48 h at 37 C [1] | loss of binding after 48 h at 37 C [2] | relative immunofluorescence remaining after 48 h [3] | OD (FCOPC21) | OD (HOPC-1) | OD (MOPC 104E) | OD (MOPC 21) | OD (MOPC 315) | OD (MoAb 3F8) | OD (MoAb R24) | OD (TIB114) | OD (UJ 13A) | OD (monoclonal antibody 8H9 [4]) | concentration of 2E9 giving almost complete inhibition of 8H9 staining (monoclonal antibody 8H9 [5]) | concentration of 2E9 without inhibition of 8H9 staining (monoclonal antibody 8H9 [5]) | concentration of 2E9 giving complete inhibition of 8H9 staining (monoclonal antibody 8H9 [6]) | concentration of 2E9 without inhibition of 8H9 staining (monoclonal antibody 8H9 [6]) | concentration of 2E9 giving complete inhibition of 8H9-scFv-Fc staining [7] | Substance
85% | 89% | 11% |  |  |  |  |  |  |  |  |  |  |  |  |  |  |  | anti-HLA A, B, C antibody HB-95
 |  |  | < 0.5 od | < 0.5 od | < 0.5 od | < 0.5 od | < 0.5 od | < 0.5 od | < 0.5 od | < 0.5 od | < 0.5 od | 1 to 2 od | 10 µg/mL | 2 µg/mL | 10 µg/mL | 2 µg/mL | 1 µg/mL | rat anti-8H9 anti-idiotypic monoclonal antibody 2E9
